Data on eleven molecules can be found in patent US20190382474A1 (SURFACE ONCOLOGY, published 2019).

One assay deals with T1, recombinant mouse IL-27 (mouse, UniProt O35228 19-228; Q8K3I6 29-234, limits assumed).
T1 construct: also called rodent recombinant IL-27
T1 sequence (looked up) 1: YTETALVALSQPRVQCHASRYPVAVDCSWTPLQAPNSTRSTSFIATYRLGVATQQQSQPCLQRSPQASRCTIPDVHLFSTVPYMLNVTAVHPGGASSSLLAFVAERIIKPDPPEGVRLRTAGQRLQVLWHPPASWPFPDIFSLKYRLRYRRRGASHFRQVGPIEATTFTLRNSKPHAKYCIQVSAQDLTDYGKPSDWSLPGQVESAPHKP
T1 sequence (looked up) 2: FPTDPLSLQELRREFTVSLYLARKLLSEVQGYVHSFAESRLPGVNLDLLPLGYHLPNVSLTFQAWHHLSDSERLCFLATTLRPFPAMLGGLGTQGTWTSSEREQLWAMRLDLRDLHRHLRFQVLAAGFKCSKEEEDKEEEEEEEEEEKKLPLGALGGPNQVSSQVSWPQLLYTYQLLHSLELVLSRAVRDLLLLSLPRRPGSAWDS
Description: column 'Affinity mIL-27 (M)'; method not given.

The target of assay [1] is T2, recombinant human IL-27 (human, UniProt Q14213 21-229; Q8NEV9 29-243).
T2 construct: Bought from R&D Systems (Cat. 2526-IL); also called hIL-27; rhIL-27
T2 sequence 1: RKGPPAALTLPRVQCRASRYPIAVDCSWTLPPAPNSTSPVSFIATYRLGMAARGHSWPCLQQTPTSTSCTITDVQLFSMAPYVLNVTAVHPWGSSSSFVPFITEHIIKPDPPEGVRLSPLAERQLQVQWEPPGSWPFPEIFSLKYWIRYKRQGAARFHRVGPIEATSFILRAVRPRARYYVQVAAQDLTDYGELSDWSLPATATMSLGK
T2 sequence 2: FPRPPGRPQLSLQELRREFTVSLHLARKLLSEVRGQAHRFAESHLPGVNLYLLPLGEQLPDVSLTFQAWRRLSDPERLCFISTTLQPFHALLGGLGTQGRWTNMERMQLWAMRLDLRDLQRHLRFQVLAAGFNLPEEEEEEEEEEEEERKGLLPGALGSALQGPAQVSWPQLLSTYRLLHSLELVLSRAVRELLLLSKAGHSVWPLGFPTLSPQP
As to the kind of experiment: column 'Affinity hIL-27 (M)', property (i); method not given, paragraph 885 names SPR (BIACORE 2000).

Assay [2] deals with T2, recombinant human IL-27. Description: SPR, hIL-27 on CM5 chip, bivalent analyte model. As to the method:
(§1) The antibodies were further characterized by surface plasmon resonance (SPR). Kinetic experiments were performed on a Biacore T200 (GE Healthcare, Uppsala, Sweden). All experiments were run at 25° C. with HBS-P+ running buffer (pH 7.4) (GE Healthcare, Little Chalfont, UK) using hIL-27 (R&D Systems, Abingdon, UK). Human IL-27 (hIL-27) antigen was captured on a CM5 chip to ˜16 RU. Immobilization was carried out at a protein concentration of 1 μg/mL in 10 mM acetate buffer pH 5.0. A three point, three-fold dilution range from 3.3 nM to 30 nM of antibody diluted in HBS-P+ buffer without regeneration between each concentration was used. The association phase for the three injections of increasing concentrations of antibody was monitored for 75 seconds each time and a single dissociation phase was measured for 250 seconds following the last injection of antibody. Regeneration of the hIL-27 surface was conducted using a single injection of 2M MgCl₂ for 120 s. Multiple repeats (n=4) of the chimeric antibody were performed throughout the assay to check the stability of the surface and analyte over the kinetic cycles.
(§2) Both 1:1 binding and bivalent analyte models were used to analyze the data due to the bivalent nature of the antibody. The results from the 1:1 binding model analysis are summarized in Table 4 and results from the bivalent analyte model are summarized in Table 5.

For assay [3], the target named is T2, recombinant human IL-27. As to the kind of experiment: SPR, hIL-27 on CM5 chip, bivalent analyte model (ka1). As to the method:
as §1, §2

Assay [4] deals with T2, recombinant human IL-27. Description: SPR, hIL-27 on CM5 chip, bivalent analyte model (kd1). On the procedure: as §1, §2
For assay [5], the target named is T2, recombinant human IL-27. Description: SPR (Biacore T200), hIL-27 on CM5 chip, single cycle, 1:1 model. On the procedure:
as §1, §2

B1: Ab7 (antibody)
heavy: EVKLVESGGGLVQPGGSLKLFCAASGFTFTSYSMSWVRQTPEKRLEWVAYISYDGGSAYYPDTVKGRFSISRDNAKKTLYLQMSSLKSEDTAMYYCARHGDYDDDDAMDYWGQGTSVTVSSAKTTAPSVYPLAPVCGDTTGSSVTLGCLVKGYFPEPVTLTWNSGSLSSGVHTFPAVLQSDLYTLSSSVTVTSSTWPSQSITCNVAHPASSTKVDKKIEPRGPTIKPCPPCKCPAPNLLGGPSVFIFPPKIKDVLMISLSPIVTCVVVDVSEDDPDVQISWFVNNVEVHTAQTQTHREDYNSTLRVVSALPIQHQDWMSGKEFKCKVNNKDLPAPIERTISKPKGSVRAPQVYVLPPPEEEMTKKQVTLTCMVTDFMPEDIYVEWTNNGKTELNYKNTEPVLDSDGSYFMYSKLRVEKKNWVERNSYSCSVVHEGLHNHHTTKSFSRTPGK
light: DIQMTQSPASLSASVGETVTITCRASENIYSYLAWYQQKQGKSPQLLVYNAETLTEGVPSRFSGSGSGTQFSLKINSLQPEDFGNYYCQHHYGTPLTFGAGTKLDLKADAAPTVSIFPPSSEQLTSGGASVVCFLNNFYPKDINVKWKIDGSERQNGVLNSWTDQDSKDSTYSMSSTLTLTKDEYERHNSYTCEATHKTSTSPIVKSFNRNEC
notes: mouse hybridoma antibody (mIgG2a/kappa); also called isolated anti-EBI3 antibody Ab7; parental Ab7 antibody
As to B1, in the assay with recombinant mouse IL-27, the binding result was “no binding”. Moreover, the Kd with recombinant human IL-27 [1] came out at 1 nM.

B2: SRF529 (antibody, V domains shown)
VH: EVQLVESGGGLVKPGGSLRLSCAASGFTFSSYSMNWVRQAPGKGLEWVSSISSSSSYIYYADSVKGRFTISRDNAKNSLYLQMNSLRAEDTAVYYCARDGGRTSYTATAHNWFDPWGQGTLVTVSS
VL: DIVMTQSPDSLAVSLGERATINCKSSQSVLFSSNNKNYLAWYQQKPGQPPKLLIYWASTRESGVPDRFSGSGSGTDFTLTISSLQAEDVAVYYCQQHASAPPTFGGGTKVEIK
notes: also called SRF529-A; SRF529-B
Consider B2, for which the Kd turned out to be 1.33 nM with recombinant mouse IL-27 and 0.0059 nM with recombinant human IL-27 [1].

B3: SRF416 (antibody, V domains shown)
VH: QVQLQQWGAGLLKPSETLSLTCAVYGGSFSGYYWSWIRQPPGKGLEWIGEIDVDGSTNYNPSLKSRVTISVDTSKNQFSLKLSSVTAADTAVYYCARDGYYYDTSPYDVWGQGTMVTVSS
VL: EIVLTQSPATLSLSPGERATLSCRASQSVSSYLAWYQQKPGQAPRLLIYDASNRATGIPARFSGSGSGTDFTLTISSLEPEDFAVYYCQQRDSFPLTFGGGTKVEIK
notes: also called SRF416-A; SRF416-B
Take B3: in the assay with recombinant mouse IL-27, the binding result is on record as “no binding”.

B4: Ab7.14 (antibody, human IgG1, kappa, V domains shown)
VH: EVKLVESGGGLVQPGGSLRLSCAASGFTFTSYSMSWVRQAPGKGLEWVAYISYDGGSAYYPDTVKGRFTISRDNSKKTLYLQMNSLRAEDTAVYYCARHGDYDDDDAMDYWGQGTLVTVSS
VL: DIQMTQSPSSLSASVGDRVTITCRASENIYSYLAWYQQKPGKAPKLLVYNAETLTEGVPSRFSGSGSGTDFTLTISSLQPEDFATYYCQHHYGTPLTFGQGTKLEIKR
notes: human IgG1/kappa
On to B4, for which, in the assay with recombinant human IL-27 [2], the ka2 was 0.039 1/RUs and the kd2 was found to be 0.099 s⁻¹. In the assay with recombinant human IL-27 [3], the kon amounted to 700000 M⁻¹ s⁻¹. The koff with recombinant human IL-27 [4] came out at 0.0026 s⁻¹. In the assay with recombinant human IL-27 [5], the Kd was 1.2 nM, the “Relative KD to Ab7.1” value came to 1.2, the koff came to 0.0018 s⁻¹ and the kon is 1.5e+06 M⁻¹ s⁻¹.

B5: Ab7.18 (antibody, human IgG1, kappa, V domains shown)
VH: EVQLVESGGGLVQPGGSLRLSCAASGFTFTSYSMSWVRQAPGKGLEWVAYISYDGGSAYYPDTVKGRFTISRDNSKNTLYLQMNSLRAEDTAVYYCARHGDYDDDDAMDYWGQGTLVTVSS
VL: DIQMTQSPSSLSASVGDRVTITCRASENIYSYLAWYQQKPGKAPKLLVYNAETLTEGVPSRFSGSGSGTDFTLTISSLQPEDFATYYCQHHYGTPLTFGQGTKLEIKR
notes: human IgG1/kappa
Turning to B5, in the assay with recombinant human IL-27 [2], the ka2 is 0.053 1/RUs and the kd2 is 0.11 s⁻¹. Moreover, in the assay with recombinant human IL-27 [3], the kon was determined as 570000 M⁻¹ s⁻¹. Also, in the assay with recombinant human IL-27 [4], the dissociation rate constant (koff) turned out to be 0.0028 s⁻¹. Moreover, in the assay with recombinant human IL-27 [5], the dissociation constant (Kd) stood at 1.5 nM, the “Relative KD to Ab7.1” value came out at 1.4, the koff amounted to 0.0019 s⁻¹ and the kon amounted to 1.3e+06 M⁻¹ s⁻¹.

B6: Ab7.20 (antibody, human IgG1, kappa, V domains shown)
VH: EVQLVESGGGLVQPGGSLRLSCAASGFTFTSYSMSWVRQAPGKGLEWVSYISYDGGSAYYPDTVKGRFTISRDNSKNTLYLQMNSLRAEDTAVYYCARHGDYDDDDAMDYWGQGTLVTVSS
VL: DIQMTQSPSSLSASVGDRVTITCRASENIYSYLAWYQQKQGKAPKLLVYNAETLTEGVPSRFSGSGSGTDFTLTISSLQPEDFANYYCQHHYGTPLTFGQGTKLDIKR
notes: human IgG1/kappa
Take B6: in the assay with recombinant human IL-27 [2], the ka2 is 0.036 1/RUs and the kd2 was found to be 0.086 s⁻¹. Besides, the kon in the assay with recombinant human IL-27 [3] came out at 620000 M⁻¹ s⁻¹. Besides, the koff in the assay with recombinant human IL-27 [4] was found to be 0.0025 s⁻¹. Besides, in the assay with recombinant human IL-27 [5], the Kd amounted to 1.4 nM, the “Relative KD to Ab7.1” value was 1.4, the koff came out at 0.0018 s⁻¹ and the kon came to 1.3e+06 M⁻¹ s⁻¹.

B7: Ab7.16 (antibody, human IgG1, kappa, V domains shown)
VH: EVQLVESGGGLVQPGGSLRLSCAASGFTFTSYSMSWVRQAPGKGLEWVAYISYDGGSAYYPDTVKGRFTISRDNSKNTLYLQMNSLRAEDTAVYYCARHGDYDDDDAMDYWGQGTLVTVSS
VL: DIQMTQSPSSLSASVGDRVTITCRASENIYSYLAWYQQKQGKAPKLLVYNAETLTEGVPSRFSGSGSGTDFTLTISSLQPEDFANYYCQHHYGTPLTFGQGTKLDIKR
notes: human IgG1/kappa
Consider B7, for which, in the assay with recombinant human IL-27 [2], the ka2 is 0.04 1/RUs and the kd2 was found to be 0.091 s⁻¹. Further, the kon in the assay with recombinant human IL-27 [3] is 570000 M⁻¹ s⁻¹. Besides, the koff with recombinant human IL-27 [4] is 0.0027 s⁻¹. Also, in the assay with recombinant human IL-27 [5], the Kd amounted to 1.5 nM, the “Relative KD to Ab7.1” value turned out to be 1.4, the koff came out at 0.0018 s⁻¹ and the kon came out at 1.3e+06 M⁻¹ s⁻¹.

B8: Ab7.21 (antibody, human IgG1, kappa, V domains shown)
VH: EVQLVESGGGLVQPGGSLRLSCAASGFTFTSYSMSWVRQAPGKGLEWVSYISYDGGSAYYPDTVKGRFTISRDNSKNTLYLQMNSLRAEDTAVYYCARHGDYDDDDAMDYWGQGTLVTVSS
VL: DIQMTQSPSSLSASVGDRVTITCRASENIYSYLAWYQQKPGKAPKLLVYNAETLTEGVPSRFSGSGSGTDFTLTISSLQPEDFANYYCQHHYGTPLTFGQGTKLEIKR
notes: human IgG1/kappa
Turning to B8, in the assay with recombinant human IL-27 [2], the ka2 is 0.043 1/RUs and the kd2 came to 0.097 s⁻¹. Also, in the assay with recombinant human IL-27 [3], the association rate constant (kon) amounted to 550000 M⁻¹ s⁻¹. Further, in the assay with recombinant human IL-27 [4], the koff turned out to be 0.0027 s⁻¹. In the assay with recombinant human IL-27 [5], the Kd is 1.5 nM, the “Relative KD to Ab7.1” value was 1.5, the koff is 0.0019 s⁻¹ and the kon came out at 1.2e+06 M⁻¹ s⁻¹.

B9: Ab7.22 (antibody, human IgG1, kappa, V domains shown)
VH: EVQLVESGGGLVQPGGSLRLSCAASGFTFTSYSMSWVRQAPGKGLEWVSYISYDGGSAYYPDTVKGRFTISRDNSKNTLYLQMNSLRAEDTAVYYCARHGDYDDDDAMDYWGQGTLVTVSS
VL: DIQMTQSPSSLSASVGDRVTITCRASENIYSYLAWYQQKPGKAPKLLVYNAETLTEGVPSRFSGSGSGTDFTLTISSLQPEDFATYYCQHHYGTPLTFGQGTKLEIKR
notes: human IgG1/kappa
Turning to B9, in the assay with recombinant human IL-27 [2], the ka2 was 0.49 1/RUs and the kd2 stood at 1.11 s⁻¹. Also, the kon with recombinant human IL-27 [3] was found to be 580000 M⁻¹ s⁻¹. In addition, the koff in the assay with recombinant human IL-27 [4] is 0.0027 s⁻¹. In addition, in the assay with recombinant human IL-27 [5], the dissociation constant Kd stood at 1.5 nM, the “Relative KD to Ab7.1” value was 1.5, the off-rate (koff) turned out to be 0.0019 s⁻¹ and the kon is 1.3e+06 M⁻¹ s⁻¹.

B10: SRF557 (antibody, V domains shown)
VH: QVQLVQSGAEVKKPGSSVKVSCKASGGTFSSYAISWVRQAPGQGLEWMGGIIPIFGTANYAQKFQGRVTITADESTSTAYMELSSLRSEDTAVYYCARLGGRGYADEGWYFDLWGRGTLVTVSS
VL: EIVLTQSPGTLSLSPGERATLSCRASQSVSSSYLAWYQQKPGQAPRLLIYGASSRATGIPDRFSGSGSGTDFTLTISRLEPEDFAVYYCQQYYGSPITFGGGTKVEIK
notes: also called SRF557-A; SRF557-B
B10: the binding result with recombinant mouse IL-27 was “no binding”.

B11: SRF536 (antibody, V domains shown)
VH: QVQLQQWGAGLLKPSETLSLTCAVYGGSFSEYYWAWIRQPPGKGLEWIGEIDEVGSTNYNPSLKSRVTISVDTSKNQFSLKLSSVTAADTAVYYCARLPMYYYDSSDLPMDVWGQGTTVTVSS
VL: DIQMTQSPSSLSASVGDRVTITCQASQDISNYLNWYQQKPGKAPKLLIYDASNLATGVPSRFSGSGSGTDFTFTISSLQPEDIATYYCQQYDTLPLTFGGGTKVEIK
notes: also called SRF536-A; SRF536-B
For B11, the dissociation constant (Kd) was found to be 80.5 nM with recombinant mouse IL-27 and 0.048 nM with recombinant human IL-27 [1].
